Measurements published in patent US20200040059A1.
Where “and” joins values, the source holds several entries; their conditions need not be identical. Identical values can stand only once.

T1: CD96 (UniProt P40200)
T1 sequence (looked up): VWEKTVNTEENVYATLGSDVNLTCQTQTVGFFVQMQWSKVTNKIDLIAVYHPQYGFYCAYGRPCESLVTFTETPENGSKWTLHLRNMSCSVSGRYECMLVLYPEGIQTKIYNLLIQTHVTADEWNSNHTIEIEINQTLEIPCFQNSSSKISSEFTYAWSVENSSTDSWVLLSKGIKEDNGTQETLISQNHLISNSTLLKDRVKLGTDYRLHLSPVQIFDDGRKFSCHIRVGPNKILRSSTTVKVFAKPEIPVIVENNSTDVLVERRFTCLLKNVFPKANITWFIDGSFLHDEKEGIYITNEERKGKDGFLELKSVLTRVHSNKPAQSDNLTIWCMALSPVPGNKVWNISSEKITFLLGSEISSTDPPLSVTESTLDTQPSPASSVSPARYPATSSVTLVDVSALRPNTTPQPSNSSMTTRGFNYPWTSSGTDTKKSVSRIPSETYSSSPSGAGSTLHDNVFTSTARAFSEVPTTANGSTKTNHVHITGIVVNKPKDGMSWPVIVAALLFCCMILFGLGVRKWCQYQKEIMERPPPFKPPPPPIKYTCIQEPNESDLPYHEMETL

T2: CD226 (human) (UniProt Q15762)
T2 sequence: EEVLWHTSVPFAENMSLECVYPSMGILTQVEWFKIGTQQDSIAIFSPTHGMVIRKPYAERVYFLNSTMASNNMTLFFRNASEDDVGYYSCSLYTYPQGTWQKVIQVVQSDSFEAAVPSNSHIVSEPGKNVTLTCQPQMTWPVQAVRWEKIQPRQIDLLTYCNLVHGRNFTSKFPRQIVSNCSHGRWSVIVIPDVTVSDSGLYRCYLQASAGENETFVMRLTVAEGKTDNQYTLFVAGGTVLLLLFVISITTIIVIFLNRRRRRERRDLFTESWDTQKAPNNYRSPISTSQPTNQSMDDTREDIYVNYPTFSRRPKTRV

T3: TIGIT (human) (UniProt Q495A1)
T3 sequence: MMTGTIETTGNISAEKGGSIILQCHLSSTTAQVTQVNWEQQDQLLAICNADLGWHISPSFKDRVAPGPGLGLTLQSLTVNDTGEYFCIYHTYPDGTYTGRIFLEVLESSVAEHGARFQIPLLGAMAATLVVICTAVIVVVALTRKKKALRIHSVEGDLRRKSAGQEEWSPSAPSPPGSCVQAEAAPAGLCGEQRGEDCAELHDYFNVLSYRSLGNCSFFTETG


Tests used:
CD96 [1] = target: T1, CD96; test: flow cytometry, cells
CD226 (human) [2] = target: T2, CD226 (human); test: flow cytometry, transfected cells
CD96 [3] = target: T1, CD96; test: flow cytometry, CD96-expressing cells
CD226 (human) [4] = target: T2, CD226 (human); test: flow cytometry, CD226-expressing cells
CD112R (human) = CD112R (human) (UniProt Q6DKI7); test: flow cytometry, cells expressing target, 25 nM
Sequence of CD112R (human) (Q6DKI7 whole entry): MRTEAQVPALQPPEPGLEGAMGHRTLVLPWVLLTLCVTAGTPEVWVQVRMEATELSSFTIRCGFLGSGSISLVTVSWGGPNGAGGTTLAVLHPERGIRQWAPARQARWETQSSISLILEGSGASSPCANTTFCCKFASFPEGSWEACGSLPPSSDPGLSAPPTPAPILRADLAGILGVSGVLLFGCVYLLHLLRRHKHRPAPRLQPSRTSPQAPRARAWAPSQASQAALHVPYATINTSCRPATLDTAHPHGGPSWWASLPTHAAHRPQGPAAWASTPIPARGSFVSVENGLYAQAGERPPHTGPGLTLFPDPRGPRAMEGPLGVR

CD226 (human) [5] = target: T2, CD226 (human); test: flow cytometry, cells expressing target, 25 nM
TIGIT (human) = target: T3, TIGIT (human); test: flow cytometry, cells expressing target, 25 nM

MFI (CD96 [1]) | MFI (CD226 (human) [2]) | MFI at 11.1 nM (CD226 (human) [4]) | Fold Change from CD155-ECD (CD226 (human) [4]) | Binder | further results
56900 | 382000 |  |  | CD155 P18S, Y30C, F91S IgV-Fc (Fc fusion, not shown: a dimerising Fc or GST; small tags and cut ends) PGTGDVVVQAPTQVSGFLGDSVTLPCCLQVPNMEVTHVSQLTWARHGESGSMAVFHQTQGPSYSESKRLEFVAARLGAELRNASLRMSGLRVEDEGNYTCLFVTFPQGSRSVDIWL | 
152000 | 581000 |  |  | CD155 L44P IgV-Fc (Fc fusion, not shown: a dimerising Fc or GST; small tags and cut ends) PGTGDVVVQAPTQVPGFLGDSVTLPCYLQVPNMEVTHVSQPTWARHGESGSMAVFHQTQGPSYSESKRLEFVAARLGAELRNASLRMFGLRVEDEGNYTCLFVTFPQGSRSVDIWL | 
 |  | 1130 MFI |  | CD155 variant IgV-Fc P18T, M36T, S65A, S67E, L79Q, A81T, F91S, G111R (Fc fusion, not shown: a dimerising Fc or GST; small tags and cut ends) PGTGDVVVQAPTQVTGFLGDSVTLPCYLQVPNTEVTHVSQLTWARHGESGSMAVFHQTQGPAYEESKRLEFVAARQGTELRNASLRMSGLRVEDEGNYTCLFVTFPQRSRSVDIWL | MFI at 11.1 nM (CD96 [3]): 963 MFI
193000 | 395000 |  |  | CD155 P18T, F91S, F108L IgV-Fc (Fc fusion, not shown: a dimerising Fc or GST; small tags and cut ends) PGTGDVVVQAPTQVTGFLGDSVTLPCYLQVPNMEVTHVSQLTWARHGESGSMAVFHQTQGPSYSESKRLEFVAARLGAELRNASLRMSGLRVEDEGNYTCLFVTLPQGSRSVDIWL | 
168000 | 438000 |  |  | CD155 P18T, F91S, G111D IgV-Fc (Fc fusion, not shown: a dimerising Fc or GST; small tags and cut ends) PGTGDVVVQAPTQVTGFLGDSVTLPCYLQVPNMEVTHVSQLTWARHGESGSMAVFHQTQGPSYSESKRLEFVAARLGAELRNASLRMSGLRVEDEGNYTCLFVTFPQDSRSVDIWL | 
119000 | 358000 |  |  | CD155 A13E, P18S, A56V, F91S IgV-Fc (Fc fusion, not shown: a dimerising Fc or GST; small tags and cut ends) PGTGDVVVQEPTQVSGFLGDSVTLPCYLQVPNMEVTHVSQLTWARHGESGSMVVFHQTQGPSYSESKRLEFVAARLGAELRNASLRMSGLRVEDEGNYTCLFVTFPQGSRSVDIWL | 
158000 | 401000 |  |  | CD155 P18T, F91S IgV-Fc (Fc fusion, not shown: a dimerising Fc or GST; small tags and cut ends) PGTGDVVVQAPTQVTGFLGDSVTLPCYLQVPNMEVTHVSQLTWARHGESGSMAVFHQTQGPSYSESKRLEFVAARLGAELRNASLRMSGLRVEDEGNYTCLFVTFPQGSRSVDIWL | 
 |  | 1120 MFI | 0.07 fold | CD155 variant IgV-Fc P18L, K70E, L79P, F91S, V95A, G111R (Fc fusion, not shown: a dimerising Fc or GST; small tags and cut ends) WPPPGTGDVVVQAPTQVLGFLGDSVTLPCYLQVPNMEVTHVSQLTWARHGESGSMAVFHQTQGPSYSESERLEFVAARPGAELRNASLRMSGLRAEDEGNYTCLFVTFPQRSRSVDIWL | Fold Change from CD155-ECD (CD96 [3]): 0.06 fold; MFI at 11.1 nM (CD96 [3]): 973 MFI
 |  | 973 MFI | 0.06 fold | CD155 variant IgV-Fc V9I, V10I, P18S, F20S, T45A, L79P, F91S, L104M, F108Y, G111R, S112V (Fc fusion, not shown: a dimerising Fc or GST; small tags and cut ends) WPPPGTGDIIVQAPTQVSGSLGDSVTLPCYLQVPNMEVTHVSQLAWARHGESGSMAVFHQTQGPSYSESKRLEFVAARPGAELRNASLRMSGLRVEDEGNYTCMFVTYPQRVRSVDIWL | Fold Change from CD155-ECD (CD96 [3]): 0.06 fold; MFI at 11.1 nM (CD96 [3]): 974 MFI
 |  | 973 MFI | 0.06 fold | CD155 variant IgV-Fc P18C, T26M, L44V, M55I, Q62K, L79P, F91S, L104M, T107M (Fc fusion, not shown: a dimerising Fc or GST; small tags and cut ends) WPPPGTGDVVVQAPTQVCGFLGDSVMLPCYLQVPNMEVTHVSQVTWARHGESGSIAVFHQTKGPSYSESKRLEFVAARPGAELRNASLRMSGLRVEDEGNYTCMFVMFPQGSRSVDIWL | 
 |  | 897 MFI | 0.06 fold | CD155 variant IgV-Fc V9I, P18T, D23G, L79P, F91S, G111R (Fc fusion, not shown: a dimerising Fc or GST; small tags and cut ends) WPPPGTGDIVVQAPTQVTGFLGGSVTLPCYLQVPNMEVTHVSQLTWARHGESGSMAVFHQTQGPSYSESKRLEFVAARPGAELRNASLRMSGLRVEDEGNYTCLFVTFPQRSRSVDIWL | 
 |  | 917 MFI and 1070 MFI | 0.06 fold and 0.07 fold | CD155 variant IgV-Fc P18F, L79P, M90L, F91S, V95A, L104M, G111R (Fc fusion, not shown: a dimerising Fc or GST; small tags and cut ends) WPPPGTGDVVVQAPTQVFGFLGDSVTLPCYLQVPNMEVTHVSQLTWARHGESGSMAVFHQTQGPSYSESKRLEFVAARPGAELRNASLRLSGLRAEDEGNYTCMFVTFPQRSRSVDIWL | 
 |  |  |  | CD155 variant IgV-Fc T15S, P18S, Y30H, Q32L, Q62R, L79P, F91S, T107M (Fc fusion, not shown: a dimerising Fc or GST; small tags and cut ends) PGTGDVVVQAPSQVSGFLGDSVTLPCHLLVPNMEVTHVSQLTWARHGESGSMAVFHQTRGPSYSESKRLEFVAARPGAELRNASLRMSGLRVEDEGNYTCLFVMFPQGSRSVDIWL | MFI at 25 nM (CD112R (human)): 1060 MFI; MFI at 25 nM (CD226 (human) [5]): 2090 MFI; MFI at 25 nM (TIGIT (human)): 16200 MFI
